Details: Pseudomonas aeruginosa (strain ATCC 15692 / DSM 22644 / CIP 104116 / JCM 14847 / LMG 12228 / 1C / PRS 101 / PAO1), CD, HCl, whole UniProt chain shown

B1: Cytochrome c-551 wild type, P00099 (protein)
chain: MKPYALLSLLATGTLLAQGAWAEDPEVLFKNKGCVACHAIDTKMVGPAYKDVAAKFAGQAGAEAELAQRIKNGSQGVWGPIPMPPNAVSDDEAQTLAKWVLSQK
denaturant m value (pH 5, 25 °C, GdnHCl): 2.17 kcal/mol/M | denaturant midpoint (higher = more stable) (pH 5, 25 °C, GdnHCl): 2.25 M | Tm (pH 5, Thermal): 50.4 °C | unfolding enthalpy (van 't Hoff) (pH 5, Thermal): 37.6 kcal/mol

Source: FireProtDB (doi:10.1074/jbc.274.53.37533)
